Experimental data as given in patent US20090226415A1, “MODIFIED TRIDEGINS, PRODUCTION AND USE THEREOF AS TRANSGLUTAMINASE INHIBITORS” (priority 2001, published 2009).
Where two headings read alike, the source gives them in different places.

T1: factor XIIIa (Homo sapiens, UniProt P00488)
T1 sequence (P00488 39-732 limits assumed): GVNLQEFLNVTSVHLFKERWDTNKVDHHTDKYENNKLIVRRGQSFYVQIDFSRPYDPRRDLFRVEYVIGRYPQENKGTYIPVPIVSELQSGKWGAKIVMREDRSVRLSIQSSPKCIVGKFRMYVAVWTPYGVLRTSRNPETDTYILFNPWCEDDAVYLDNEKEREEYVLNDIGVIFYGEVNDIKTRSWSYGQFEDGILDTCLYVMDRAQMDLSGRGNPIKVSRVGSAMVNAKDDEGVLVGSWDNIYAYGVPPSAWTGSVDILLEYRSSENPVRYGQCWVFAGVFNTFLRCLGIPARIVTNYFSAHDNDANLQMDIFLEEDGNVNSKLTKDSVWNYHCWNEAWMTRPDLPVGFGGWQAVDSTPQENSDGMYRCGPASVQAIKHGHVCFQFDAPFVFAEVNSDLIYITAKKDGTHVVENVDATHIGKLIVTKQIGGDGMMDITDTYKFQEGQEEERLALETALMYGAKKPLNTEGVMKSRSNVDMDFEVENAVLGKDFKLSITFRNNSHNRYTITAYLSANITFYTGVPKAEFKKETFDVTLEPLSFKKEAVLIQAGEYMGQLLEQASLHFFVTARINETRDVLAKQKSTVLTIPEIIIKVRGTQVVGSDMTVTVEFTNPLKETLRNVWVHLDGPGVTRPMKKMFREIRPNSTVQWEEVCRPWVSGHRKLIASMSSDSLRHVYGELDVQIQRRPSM


What was measured:
factor XIIIa [1] = biological target: T1, factor XIIIa; conditions: Table 1, published inhibitors of factor XIIIa; read-out: Affinity (IC50); cited from earlier work
factor XIIIa [2] = biological target: T1, factor XIIIa; test: biochemical; type: biochemical; conditions: for Relative inhibitory effect (%): final variant concentration 5.45 μM
Method: The assay is based on factor XIII being activated to form factor XIIIa by thrombin which is present in the reagents. Factor XIIIa links a specific peptide substrate to glycine ethyl ester with ammonium ions being released. The latter are determined in an enzyme reaction which proceeds in parallel. The extinction at 340 nm was used to measure the decrease in NADH. For the measurement, peptides were present in 50% acetonitrile in a stock concentration of 5 mM. The NADH and detection reagents which were supplied by the manufacturer were dissolved in 3 ml of water, with the activator reagent subsequently being dissolved in 3 ml of NADH reagent. For use, the activator and detection reagents were mixed in a ratio of 1:1. In order to carry out the measurement in microtiter plate format, 100 μl of sample (inhibitor or control buffer), 25 μl of factor XIII (10 U/ml) and 150 μl of working reagent were mixed. The measurement was carried out continuously for 20 min at 340 nm, and at 37° C., in a microtiter plate photometer. For the evaluation, the differences in the values measured after 16 and 20 min were compared.
The relative inhibitory effect (%) was determined at a final variant concentration of 5.45 μM. The inhibitory effect of the recombinant tridegin polypeptide was normalized to 100% (at 5.45 μM).
The above-described Berichrom® assay was used to determine the relative inhibitory effect (%) at a final concentration of the peptides of 7.27 μM. The inhibitory effect of the recombinant tridegin polypeptide, at a final concentration of 7.27 μM, was normalized to 100%.
The relative inhibitory effect (%) was determined at a final variant concentration of 5.45 μM. The inhibitory effect of the recombinant wild-type tridegin poly-peptide (at 5.45 μM) was normalized to 100%. The oligonucleotides which were used to produce the abovementioned variants are also specified in the table.

[3] = Analytical gel filtration run for multimeric, high molecular weight aggregates; type: physicochemical; conditions: 20 mM sodium phosphate, pH 8.0, 300 mM NaCl
Description: These modified tridegins were produced by site-directed mutagenesis of the cysteines present in the wild-type tridegin. The aim of this mutagenesis was to replace, in a step-wise manner, the cysteine residues which are suitable for forming intermolecular disulfide bridges. The tendency to form disulfide bridges, and the aggregation of the end product which accompanies it, were detected by carrying out appropriate chromatographic analyses of the original transglutaminase inhibitor (SEQ ID No. 1) in the presence or absence of reducing agents (e.g. mercaptoethanol and DTT). Thus, in one gel filtration run (on an Amersham-Pharmacia HiPrep 26/60 Sephacryl S200 HR column; 20 mM sodium phosphate, pH 8.0, 300 mM NaCl; 1 ml/min) the purified, recombinant tridegin polypeptide had approximately an 80% content of multimeric, high molecular weight aggregates.

whole citrate blood = test: Thrombelastography (ROTEG) of coagulation and fibrinolysis in whole citrate blood; set-up: species or system human
Description: To do this, what are termed thrombelasto-grams were plotted. Thrombelastography is a current method for measuring coagulation and fibrinolysis. The method measures the change in the viscosity of the blood by the change in the resistance to rotation of a plunger which is present in the blood (Calatzis et al., 2000). […] Thrombelastograms quantify important parameters of haemostasis: • clotting time (time between the initiation of coagulation and the beginning of a measurable change in the viscosity of the blood, CT) • stability of the thrombus (maximum amplitude, maximum clot firmness, MCF) • fibrinolysis time (time between the beginning of a measurable change in blood viscosity and achievement of the starting value prior to the clotting, lysis time, LT).
The ROTEG® instrument supplied by Pentapharm GmbH, Munich, was used for the measurements which are shown. FIGS. 5 and 6 show the thrombelastograms of whole citrate blood after the addition of Ca^2+ (Starteg reagent, from Pentapharm GmbH) and thromboplastin phospholipid (Integ reagent, from Pentapharm GmbH). These reagents are used to induce coagulation. […] This is made clear by […]

[4] = Table 4, Cys variants, wild-type tridegin polypeptide normalized to 100%

Row | Molecule | IC50 (factor XIIIa [1]) | Relative inhibitory effect (%) (factor XIIIa [2]; [4]) | also measured
1 | C[C@@H]1CCC/C=C\C(=O)Cc2cc(O)cc(O)c2C(=O)O1 [ZG-1400] | 5.7 µM |  | 
2 | C/C=C/C/C=C/CCC(=O)[C@H]1O[C@H]1C(N)=O [Cerulenin] | 29 µM |  | 
3 | SEQ ID No. 1: recombinant wild-type tridegin polypeptide expressed in and purified from Escherichia coli (protein) MKLLPCKEWHQGIPNPRCWCGADLECAQDQYCAFIPQCRPRSELIKPMDDIYQRPVEFPNLPLKPREE |  | 100% | Relative inhibitory effect (%) (factor XIIIa [2]; Table 2, recombinant tridegin polypeptide normalized to 100%): 100%; IC50 (factor XIIIa [2]; purified recombinant tridegin polypeptide from Escherichia coli, FIG. 3): 2 to 4 µM; content of multimeric, high molecular weight aggregates ([3]; Sephacryl S200 HR, no reducing agent): ~80%; content of the aggregates ([3]; reducing conditions: 1.5 mM DTT): < 20%; clotting time (CT) (whole citrate blood; FIG. 5 A and B, 190 seconds in the absence of inhibitor): 380 s; effect on fibrinolysis brought about by tPA and urokinase (whole citrate blood; lower amplitude and increased rate of fibrinolysis): accelerate and improve the fibrinolysis
4 | C26A; +C38A: tridegin modified by replacement of two cysteine residues, expressed in Escherichia coli (protein) MKLLPCKEWHQGIPNPRCWCGADLEAAQDQYCAFIPQARPRSELIKPMDDIYQRPVEFPNLPLKPREE |  | 80% | 
5 | C26A: tridegin modified by replacement of a cysteine residue, expressed in Escherichia coli (protein) MKLLPCKEWHQGIPNPRCWCGADLEAAQDQYCAFIPQCRPRSELIKPMDDIYQRPVEFPNLPLKPREE |  | 82% | 
6 | C32A: tridegin modified by replacement of a cysteine residue, expressed in Escherichia coli (protein) MKLLPCKEWHQGIPNPRCWCGADLECAQDQYAAFIPQCRPRSELIKPMDDIYQRPVEFPNLPLKPREE |  | 86% | 
